Measurements: publication PMC4653635, “Folding of newly translated membrane protein CCR5 is assisted by the chaperonin GroEL-GroES” (Scientific Reports, 2015)

Assays:
Conditions in all cases: one partner purified
[1] = target: T1, Human CC chemokine receptor type 5 (CCR5), C-terminally 6 × His-tagged (human, UniProt P51681 1-352); assay: quartz crystal microbalance (QCM); CCR5 made with GroEL alone added to the cell-free reaction; supernatant diluted 20 times and immobilised on a Q-Sense His-tag Capturing Sensor; CCL11 flowed over; 25 °C; 25 mM HEPES, 0.12 M NaCl, 0.2% Brij35, pH 7.6; 1:1 binding model
T1 construct: CC chemokine receptor type 5 (CCR5), human; 352 amino acids, 40.5 kDa as printed; cloned in pIVEX2.3d; The same construct was made with no chaperonin, with GroEL-GroES (0.04:0.08 uM) or with GroEL alone (0.04 uM) added to the cell-free reaction; these three samples are kept apart as assays; For one gel, BODIPY-labelled lysines were incorporated during translation; also called CCR5 receptor; …

[2] = target: T1, Human CC chemokine receptor type 5 …; assay: quartz crystal microbalance (QCM); CCR5 made without added chaperonin; supernatant diluted 20 times and immobilised on a Q-Sense His-tag Capturing Sensor; CCL11 flowed over; 25 °C; 25 mM HEPES, 0.12 M NaCl, 0.2% Brij35, pH 7.6; 1:1 binding model
[3] = target: T1, Human CC chemokine receptor type 5 …; assay: quartz crystal microbalance (QCM); CCR5 made with GroEL-GroES added to the cell-free reaction; supernatant diluted 20 times and immobilised on a Q-Sense His-tag Capturing Sensor; CCL11 flowed over; 25 °C; 25 mM HEPES, 0.12 M NaCl, 0.2% Brij35, pH 7.6; 1:1 binding model

T1 sequence (P51681 whole entry): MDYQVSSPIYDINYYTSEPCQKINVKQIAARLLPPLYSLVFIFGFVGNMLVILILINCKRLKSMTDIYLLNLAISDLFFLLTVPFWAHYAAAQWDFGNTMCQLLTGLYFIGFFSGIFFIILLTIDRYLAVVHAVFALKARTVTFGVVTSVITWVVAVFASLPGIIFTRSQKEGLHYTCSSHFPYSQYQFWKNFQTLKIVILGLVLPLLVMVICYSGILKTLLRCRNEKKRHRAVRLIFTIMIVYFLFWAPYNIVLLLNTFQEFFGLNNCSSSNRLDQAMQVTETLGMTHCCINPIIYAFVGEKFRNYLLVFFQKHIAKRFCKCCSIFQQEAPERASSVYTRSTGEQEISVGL

B1: eotaxin (CCL11) (ligand)
chain: not shown
notes: eotaxin (CCL11)
Kd [1]: 55 nM
koff [1]: 0.00025 s⁻¹
kon [1]: 4600 M⁻¹ s⁻¹
Kd [2]: 97 nM
koff [2]: 0.00046 s⁻¹
kon [2]: 4700 M⁻¹ s⁻¹
Kd [3]: 44 nM
koff [3]: 0.0002 s⁻¹
kon [3]: 4500 M⁻¹ s⁻¹
